Source: patent US20150139990A1 (DAINIPPON SUMITOMO PHARMA, published 2015)

Tests used:
Test in all cases: ELISA
human CD81 mutant V135A = molecular target: T1, human CD81 mutant V135A (human, UniProt P60033 1-236, limits assumed)
T1 construct: as m30; not shown: C-terminal V5 and 6xHis tags
T1 sequence: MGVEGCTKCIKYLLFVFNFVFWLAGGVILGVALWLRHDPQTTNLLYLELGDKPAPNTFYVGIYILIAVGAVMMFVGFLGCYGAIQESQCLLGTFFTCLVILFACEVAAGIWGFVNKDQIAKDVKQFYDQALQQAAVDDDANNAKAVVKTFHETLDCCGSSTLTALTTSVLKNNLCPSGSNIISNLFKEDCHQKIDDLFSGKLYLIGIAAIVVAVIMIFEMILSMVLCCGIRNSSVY
Summary of the method: (§1)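 Altered forms of human CD81 carrying C-terminal V5 and 6×His tags were cloned in pcDNA-DEST40 and expressed transiently in CHO cells for 48 hours, after which membranes were solubilised in 1% n-octylglucoside and captured on Ni-NTA His Sorb plates at 5 μg/100 μL/well for 3 hours at 4° C. Antibody was bound for 1 hour at room temperature and detected with HRP anti-human IgG4 and TMB, reading absorbance at 450 nm. Relative binding affinity is expressed as a percentage of binding to unmodified CD81, adjusted for V5-tag expression.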

human CD81 mutant G158S = molecular target: T2, human CD81 mutant G158S (human, UniProt P60033 1-236, limits assumed)
T2 construct: as m30; not shown: C-terminal V5 and 6xHis tags
T2 sequence: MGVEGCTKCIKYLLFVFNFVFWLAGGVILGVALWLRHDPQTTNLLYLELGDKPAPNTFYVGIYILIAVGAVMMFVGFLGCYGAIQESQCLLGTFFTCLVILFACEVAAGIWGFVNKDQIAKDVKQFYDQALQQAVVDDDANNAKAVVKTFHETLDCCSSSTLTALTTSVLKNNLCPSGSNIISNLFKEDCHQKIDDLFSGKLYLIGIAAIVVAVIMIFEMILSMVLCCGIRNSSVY
Summary of the method: as §1

human CD81 mutant A164T = molecular target: T3, human CD81 mutant A164T (human, UniProt P60033 1-236, limits assumed)
T3 construct: as m30; not shown: C-terminal V5 and 6xHis tags
T3 sequence: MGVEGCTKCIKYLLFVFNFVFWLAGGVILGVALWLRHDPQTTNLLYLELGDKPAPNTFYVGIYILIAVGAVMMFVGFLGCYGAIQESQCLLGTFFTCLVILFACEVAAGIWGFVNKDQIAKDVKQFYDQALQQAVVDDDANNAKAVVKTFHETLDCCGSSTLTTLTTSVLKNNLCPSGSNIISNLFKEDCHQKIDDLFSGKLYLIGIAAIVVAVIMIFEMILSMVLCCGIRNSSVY
Summary of the method: as §1

human CD81 mutant L165A = molecular target: T4, human CD81 mutant L165A (human, UniProt P60033 1-236, limits assumed)
T4 construct: as m30; not shown: C-terminal V5 and 6xHis tags
T4 sequence: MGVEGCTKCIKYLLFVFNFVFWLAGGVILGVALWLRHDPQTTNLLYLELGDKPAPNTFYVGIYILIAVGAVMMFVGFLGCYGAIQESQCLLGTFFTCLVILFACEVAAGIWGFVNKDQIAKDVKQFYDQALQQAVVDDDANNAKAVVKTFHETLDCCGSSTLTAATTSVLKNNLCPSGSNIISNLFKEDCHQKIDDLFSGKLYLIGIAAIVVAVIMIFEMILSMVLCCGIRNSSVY
Summary of the method: as §1

human CD81 mutant V169A = molecular target: T5, human CD81 mutant V169A (human, UniProt P60033 1-236, limits assumed)
T5 construct: as m30; not shown: C-terminal V5 and 6xHis tags
T5 sequence: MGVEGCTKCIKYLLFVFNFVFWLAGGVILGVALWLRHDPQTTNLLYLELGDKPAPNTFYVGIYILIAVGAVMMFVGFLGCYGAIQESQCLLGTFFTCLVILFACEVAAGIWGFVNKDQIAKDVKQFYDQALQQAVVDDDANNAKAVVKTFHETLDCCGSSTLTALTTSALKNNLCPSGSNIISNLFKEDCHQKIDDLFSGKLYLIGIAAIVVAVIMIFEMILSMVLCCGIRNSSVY
Summary of the method: as §1

human CD81 mutant V135L = molecular target: T6, human CD81 mutant V135L (human, UniProt P60033 1-236, limits assumed)
T6 construct: as m30; not shown: C-terminal V5 and 6xHis tags
T6 sequence: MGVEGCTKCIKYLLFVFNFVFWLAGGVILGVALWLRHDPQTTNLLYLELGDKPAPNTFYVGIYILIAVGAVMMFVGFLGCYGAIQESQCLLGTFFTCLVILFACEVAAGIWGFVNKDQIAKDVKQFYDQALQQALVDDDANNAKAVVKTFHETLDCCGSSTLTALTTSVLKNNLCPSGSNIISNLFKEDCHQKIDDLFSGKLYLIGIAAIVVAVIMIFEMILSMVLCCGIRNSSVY
Summary of the method: as §1

human CD81 mutant A164V = molecular target: T7, human CD81 mutant A164V (human, UniProt P60033 1-236, limits assumed)
T7 construct: as m30; not shown: C-terminal V5 and 6xHis tags
T7 sequence: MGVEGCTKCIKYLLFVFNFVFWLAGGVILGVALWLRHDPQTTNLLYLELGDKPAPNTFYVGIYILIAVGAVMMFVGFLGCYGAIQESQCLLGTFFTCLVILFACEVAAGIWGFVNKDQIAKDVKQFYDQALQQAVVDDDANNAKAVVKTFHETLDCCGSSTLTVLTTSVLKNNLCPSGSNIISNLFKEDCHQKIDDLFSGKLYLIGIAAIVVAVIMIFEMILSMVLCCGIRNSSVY
Summary of the method: as §1

human CD81 mutant V169L = molecular target: T8, human CD81 mutant V169L (human, UniProt P60033 1-236, limits assumed)
T8 construct: as m30; not shown: C-terminal V5 and 6xHis tags
T8 sequence: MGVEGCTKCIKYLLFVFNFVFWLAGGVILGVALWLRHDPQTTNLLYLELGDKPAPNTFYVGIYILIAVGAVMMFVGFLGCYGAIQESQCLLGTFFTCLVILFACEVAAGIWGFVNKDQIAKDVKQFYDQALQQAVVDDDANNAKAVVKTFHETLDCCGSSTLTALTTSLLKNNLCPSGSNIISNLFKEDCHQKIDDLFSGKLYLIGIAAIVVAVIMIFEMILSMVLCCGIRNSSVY
Summary of the method: as §1

human CD81 mutant N172A = molecular target: T9, human CD81 mutant N172A (human, UniProt P60033 1-236, limits assumed)
T9 construct: as m30; not shown: C-terminal V5 and 6xHis tags
T9 sequence: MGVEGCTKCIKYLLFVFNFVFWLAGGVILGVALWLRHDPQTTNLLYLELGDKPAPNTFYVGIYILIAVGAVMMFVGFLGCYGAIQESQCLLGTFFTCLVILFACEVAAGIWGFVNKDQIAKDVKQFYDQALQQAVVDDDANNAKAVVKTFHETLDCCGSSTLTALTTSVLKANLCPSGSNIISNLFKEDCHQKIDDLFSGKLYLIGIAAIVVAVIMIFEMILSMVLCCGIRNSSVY

Measured: relative binding affinity

B1: 002-A07 IgG4 antibody (antibody)
heavy: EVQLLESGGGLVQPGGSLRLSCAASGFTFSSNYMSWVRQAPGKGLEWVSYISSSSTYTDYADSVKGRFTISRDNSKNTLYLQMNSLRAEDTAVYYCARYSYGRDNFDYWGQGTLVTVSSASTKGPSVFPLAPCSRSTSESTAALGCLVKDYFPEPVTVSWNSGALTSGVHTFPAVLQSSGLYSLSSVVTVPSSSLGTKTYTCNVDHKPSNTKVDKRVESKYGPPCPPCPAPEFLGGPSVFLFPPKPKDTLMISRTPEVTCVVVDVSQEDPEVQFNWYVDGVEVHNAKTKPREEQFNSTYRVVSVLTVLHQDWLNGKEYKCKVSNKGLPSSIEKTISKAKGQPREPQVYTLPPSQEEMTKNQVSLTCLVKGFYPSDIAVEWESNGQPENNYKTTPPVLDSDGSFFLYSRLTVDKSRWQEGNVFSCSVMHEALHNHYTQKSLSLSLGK
light: QSVLTQPPSASGTPGQRVTISCTGSTSNIGAGYDTHWYQQLPGTAPKLLIYGNSNRPSGVPDRFSGSKSGTSASLAISGLRSEDEADYYCQSYDTNLSVWVFGGGTKLTVLGQPKAAPSVTLFPPSSEELQANKATLVCLISDFYPGAVTVAWKADSSPVKAGVETTTPSKQSNNKYAASSYLSLTPEQWKSHRSYSCQVTHEGSTVEKTVAPTECS
notes: human IgG4 S228P, lambda light chain
not listed: human CD81 mutant N172A
< 20%: all other assays above

B2: 003-D07 (antibody, human IgG4 S228P, lambda, V domains shown)
VH: EVQLLESGGGLVQPGGSLRLSCAASGFTFSSNYMSWVRQAPGKGLEWVSYISSSSTYTDYADSVKGRFTISRDNSKNTLYLQMNSLRAEDTAVYYCARYSYDRDNFDYWGQGTLVTVSS
VL: QSVLTQPFSASGTPGQRVTISCTGSTSNIGAGYDTHWYQHLPGTAPKLLIYGNSNRPSGVPDRFSGSKSGTSASLAISGLRSEDEADYYCQSYDTNLSVWVFGGGTKLTVLG
notes: IgG4 S228P
< 20%: human CD81 mutant N172A
